Measurements as given in PMC3348883.

Target: Raf-1 (UniProt P04049)
Assay: FLAG IP, GFP-Raf-1 blot
Details: reference: FLAG-MST2 wild type; sites Y81

binding against the reference: stronger
Substance: MST2 (from UniProt Q13188) FLAG-MST2 Y81F
